Earlier results on eight substances are cited in paper PMC3966486.

In general, pKa refers to the pH at which an ionisable group is half protonated.

Data set [1] has as its target His27 (UniProt position 55, AVVLSHYIANL). As to conditions: unbound (free) monomer, not in the hormone-receptor complex.
In another data set the target is His180 (UniProt position 208, LRRDSHKIDNY). As to conditions: unbound (free) monomer, not in the hormone-receptor complex.
Data set [2] has as its target His30 (UniProt position 58, LSHYIHNLSSE). To be noted: unbound (free) monomer, not in the hormone-receptor complex.
Data set [3] addresses His27 (UniProt position 55, AVVLSHYIHNL). To be noted: unbound (free) monomer, not in the hormone-receptor complex.
For data set [4], the target named is human prolactin receptor extracellular domain (hPRLr-ECD), wild type (UniProt P16471). As to conditions: pH.
Sequence of human prolactin receptor extracellular domain (hPRLr-ECD), wild type (P16471 whole entry, the tested form may be a part): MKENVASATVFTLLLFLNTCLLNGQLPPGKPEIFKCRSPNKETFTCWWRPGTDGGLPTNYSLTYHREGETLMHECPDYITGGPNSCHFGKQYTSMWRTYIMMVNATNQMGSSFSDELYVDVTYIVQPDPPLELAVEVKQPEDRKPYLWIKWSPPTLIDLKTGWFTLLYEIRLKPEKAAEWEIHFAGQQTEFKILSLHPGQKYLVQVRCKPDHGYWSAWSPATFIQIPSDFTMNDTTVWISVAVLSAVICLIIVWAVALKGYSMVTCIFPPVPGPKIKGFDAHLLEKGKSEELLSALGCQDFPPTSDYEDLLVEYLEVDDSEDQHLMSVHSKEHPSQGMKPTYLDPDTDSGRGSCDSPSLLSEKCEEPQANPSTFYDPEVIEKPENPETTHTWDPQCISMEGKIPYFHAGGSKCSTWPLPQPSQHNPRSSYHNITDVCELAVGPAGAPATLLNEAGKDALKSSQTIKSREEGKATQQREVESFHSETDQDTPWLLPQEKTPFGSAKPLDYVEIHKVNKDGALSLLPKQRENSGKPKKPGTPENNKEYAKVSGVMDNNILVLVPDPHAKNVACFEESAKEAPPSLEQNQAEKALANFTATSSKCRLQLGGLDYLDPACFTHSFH
The next data set deals with His188 (UniProt position 212, RCKPDHGYWSA). To be noted: unbound (free) monomer, not in the hormone-receptor complex.
Data set [5] has as its target human prolactin receptor extracellular domain (hPRLr-ECD), wild type (UniProt P16471). As to conditions: pH. The source holds these as a separate data set.
For data set [6], the target named is His30 (UniProt position 58, LSAYIHNLSSE). To be noted: unbound (free) monomer, not in the hormone-receptor complex.
Data set [7] deals with human prolactin receptor extracellular domain (hPRLr-ECD), wild type (UniProt P16471). As to conditions: pH. The source holds these as a separate data set.

Consider “Prolactin (hPRL) H30A (Homo sapiens; H30A)”, for which the results for the pKa in the data set with His27 [1] and with His180 were 6.9 and 6.3, respectively.

As for “Prolactin (hPRL) H180A (Homo sapiens; H180A)”, the results for the pKa with His30 [2] and with His27 [3] were 6.7 and 6.8, respectively.

As for human prolactin H30A H30A, in data set [4], the pKa, His27 of hPRL H30A is 6.9 pH units and the pKa, His180 of hPRL H30A was 6.3 pH units.

As for “Prolactin receptor extracellular domain (hPRLr-ECD) (Homo sapiens)”, the pKa with His188 was 7.7.

For the substance Prolactin (hPRL) (Homo sapiens), the pKa with His180 was 6.1; in the data set with His30 [2], 6.3; in the data set with His27 [3] it was 6.7.

On to human prolactin H27A H27A, for which, in data set [5], the pKa, His30 of hPRL H27A is 6.5 pH units and the pKa, His180 of hPRL H27A is 6.2 pH units.

“Prolactin (hPRL) H27A (Homo sapiens; H27A)”: the pKa in the data set with His180 is 6.2; in the data set with His30 [6] it was 6.5.

In the case of human prolactin H180A H180A, in [7], the pKa, His27 of hPRL H180A was 6.8 pH units and the pKa, His30 of hPRL H180A is 6.7 pH units.
